Reference: patent US20260167699A1 (Chugai, published 2026)

B1: GpH7-A5/GpH7-B3 variant K334_07I/GpL16-k0 (antibody, human IgG1, kappa)
heavy 1: not shown
heavy 2: not shown
light: DIVMTQSPLSLPVTPGEPASISCQASESLVHSNRNTYLHWYLQKPGQSPQLLIYKVSNRFSGVPDRFSGSGSGTDFTLKISRVEAEDVGVYYCSQNTHVPPTFGQGTKVEIERTVAAPSVFIFPPSDEQLKSGTASVVCLLNNFYPREAKVQWKVDNALQSGNSQESVTEQDSKDSTYSLSSTLTLSKADYEKHKVYACEVTHQGLSSPVTKSFNRGEC
notes: copies: 1 + 1 + 2
B2: GpH7-A5/GpH7-B3 variant K334_08L/GpL16-k0 (antibody, human IgG1, kappa)
heavy 1: not shown
heavy 2: not shown
light: DIVMTQSPLSLPVTPGEPASISCQASESLVHSNRNTYLHWYLQKPGQSPQLLIYKVSNRFSGVPDRFSGSGSGTDFTLKISRVEAEDVGVYYCSQNTHVPPTFGQGTKVEIERTVAAPSVFIFPPSDEQLKSGTASVVCLLNNFYPREAKVQWKVDNALQSGNSQESVTEQDSKDSTYSLSSTLTLSKADYEKHKVYACEVTHQGLSSPVTKSFNRGEC
notes: copies: 1 + 1 + 2
B3: GpH7-A5/GpH7-B3 variant K334_09D/GpL16-k0 (antibody, human IgG1, kappa)
heavy 1: not shown
heavy 2: not shown
light: DIVMTQSPLSLPVTPGEPASISCQASESLVHSNRNTYLHWYLQKPGQSPQLLIYKVSNRFSGVPDRFSGSGSGTDFTLKISRVEAEDVGVYYCSQNTHVPPTFGQGTKVEIERTVAAPSVFIFPPSDEQLKSGTASVVCLLNNFYPREAKVQWKVDNALQSGNSQESVTEQDSKDSTYSLSSTLTLSKADYEKHKVYACEVTHQGLSSPVTKSFNRGEC
notes: copies: 1 + 1 + 2
B4: GpH7-A5/GpH7-B3 variant K334_10E/GpL16-k0 (antibody, human IgG1, kappa)
heavy 1: not shown
heavy 2: not shown
light: DIVMTQSPLSLPVTPGEPASISCQASESLVHSNRNTYLHWYLQKPGQSPQLLIYKVSNRFSGVPDRFSGSGSGTDFTLKISRVEAEDVGVYYCSQNTHVPPTFGQGTKVEIERTVAAPSVFIFPPSDEQLKSGTASVVCLLNNFYPREAKVQWKVDNALQSGNSQESVTEQDSKDSTYSLSSTLTLSKADYEKHKVYACEVTHQGLSSPVTKSFNRGEC
notes: copies: 1 + 1 + 2
B5: GpH7-A5/GpH7-B3 variant K334_12R/GpL16-k0 (antibody, human IgG1, kappa)
heavy 1: not shown
heavy 2: not shown
light: DIVMTQSPLSLPVTPGEPASISCQASESLVHSNRNTYLHWYLQKPGQSPQLLIYKVSNRFSGVPDRFSGSGSGTDFTLKISRVEAEDVGVYYCSQNTHVPPTFGQGTKVEIERTVAAPSVFIFPPSDEQLKSGTASVVCLLNNFYPREAKVQWKVDNALQSGNSQESVTEQDSKDSTYSLSSTLTLSKADYEKHKVYACEVTHQGLSSPVTKSFNRGEC
notes: copies: 1 + 1 + 2
B6: GpH7-A5/GpH7-B3 variant K334_13S/GpL16-k0 (antibody, human IgG1, kappa)
heavy 1: not shown
heavy 2: not shown
light: DIVMTQSPLSLPVTPGEPASISCQASESLVHSNRNTYLHWYLQKPGQSPQLLIYKVSNRFSGVPDRFSGSGSGTDFTLKISRVEAEDVGVYYCSQNTHVPPTFGQGTKVEIERTVAAPSVFIFPPSDEQLKSGTASVVCLLNNFYPREAKVQWKVDNALQSGNSQESVTEQDSKDSTYSLSSTLTLSKADYEKHKVYACEVTHQGLSSPVTKSFNRGEC
notes: copies: 1 + 1 + 2
B7: GpH7-A5/GpH7-B3 variant K334_14T/GpL16-k0 (antibody, human IgG1, kappa)
heavy 1: not shown
heavy 2: not shown
light: DIVMTQSPLSLPVTPGEPASISCQASESLVHSNRNTYLHWYLQKPGQSPQLLIYKVSNRFSGVPDRFSGSGSGTDFTLKISRVEAEDVGVYYCSQNTHVPPTFGQGTKVEIERTVAAPSVFIFPPSDEQLKSGTASVVCLLNNFYPREAKVQWKVDNALQSGNSQESVTEQDSKDSTYSLSSTLTLSKADYEKHKVYACEVTHQGLSSPVTKSFNRGEC
notes: copies: 1 + 1 + 2
B8: GpH7-A5/GpH7-B3 variant K334_15Y/GpL16-k0 (antibody, human IgG1, kappa)
heavy 1: not shown
heavy 2: not shown
light: DIVMTQSPLSLPVTPGEPASISCQASESLVHSNRNTYLHWYLQKPGQSPQLLIYKVSNRFSGVPDRFSGSGSGTDFTLKISRVEAEDVGVYYCSQNTHVPPTFGQGTKVEIERTVAAPSVFIFPPSDEQLKSGTASVVCLLNNFYPREAKVQWKVDNALQSGNSQESVTEQDSKDSTYSLSSTLTLSKADYEKHKVYACEVTHQGLSSPVTKSFNRGEC
notes: copies: 1 + 1 + 2
B9: GpH7-A5/GpH7-B3 variant K334_16H/GpL16-k0 (antibody, human IgG1, kappa)
heavy 1: not shown
heavy 2: not shown
light: DIVMTQSPLSLPVTPGEPASISCQASESLVHSNRNTYLHWYLQKPGQSPQLLIYKVSNRFSGVPDRFSGSGSGTDFTLKISRVEAEDVGVYYCSQNTHVPPTFGQGTKVEIERTVAAPSVFIFPPSDEQLKSGTASVVCLLNNFYPREAKVQWKVDNALQSGNSQESVTEQDSKDSTYSLSSTLTLSKADYEKHKVYACEVTHQGLSSPVTKSFNRGEC
notes: copies: 1 + 1 + 2
B10: GpH7-A5/GpH7-B3 variant K334_18N/GpL16-k0 (antibody, human IgG1, kappa)
heavy 1: not shown
heavy 2: not shown
light: DIVMTQSPLSLPVTPGEPASISCQASESLVHSNRNTYLHWYLQKPGQSPQLLIYKVSNRFSGVPDRFSGSGSGTDFTLKISRVEAEDVGVYYCSQNTHVPPTFGQGTKVEIERTVAAPSVFIFPPSDEQLKSGTASVVCLLNNFYPREAKVQWKVDNALQSGNSQESVTEQDSKDSTYSLSSTLTLSKADYEKHKVYACEVTHQGLSSPVTKSFNRGEC
notes: copies: 1 + 1 + 2
B11: GpH7-A5/GpH7-B3 variant K334_19Q/GpL16-k0 (antibody, human IgG1, kappa)
heavy 1: not shown
heavy 2: not shown
light: DIVMTQSPLSLPVTPGEPASISCQASESLVHSNRNTYLHWYLQKPGQSPQLLIYKVSNRFSGVPDRFSGSGSGTDFTLKISRVEAEDVGVYYCSQNTHVPPTFGQGTKVEIERTVAAPSVFIFPPSDEQLKSGTASVVCLLNNFYPREAKVQWKVDNALQSGNSQESVTEQDSKDSTYSLSSTLTLSKADYEKHKVYACEVTHQGLSSPVTKSFNRGEC
notes: copies: 1 + 1 + 2

What follows are binders tested against T1, FcγRIIIa (human, UniProt P08637 17-208) (assay: SPR (Biacore);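 further: antibody variants captured on an SPR sensor chip, with FcγRIIIa passed over as analyte in HBS-EP+ buffer at 25 °C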).
T1 construct: extracellular domain; also called 3a; FcγRIIIa extracellular domain
T1 sequence (P08637 other isoform, or with tags, fused parts or gaps): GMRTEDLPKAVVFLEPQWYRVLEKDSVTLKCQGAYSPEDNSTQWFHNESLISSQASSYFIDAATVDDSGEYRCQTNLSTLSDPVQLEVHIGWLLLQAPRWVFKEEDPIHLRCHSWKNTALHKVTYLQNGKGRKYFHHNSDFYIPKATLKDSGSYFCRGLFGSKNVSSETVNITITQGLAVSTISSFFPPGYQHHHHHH

Point of comparison: B4, “He/Con 3a” value 186 % of GpH7-A5/GpH7-B3/GpL16-k0. Against it:
- B1 — lower, 156 % of GpH7-A5/GpH7-B3/GpL16-k0
- B2 — lower, 148 % of GpH7-A5/GpH7-B3/GpL16-k0
- B3 — lower, 164 % of GpH7-A5/GpH7-B3/GpL16-k0
- B5 — lower, 93.5 % of GpH7-A5/GpH7-B3/GpL16-k0
- B6 — lower, 150 % of GpH7-A5/GpH7-B3/GpL16-k0
- B7 — lower, 146 % of GpH7-A5/GpH7-B3/GpL16-k0
- B8 — lower, 145 % of GpH7-A5/GpH7-B3/GpL16-k0
- B9 — lower, 138 % of GpH7-A5/GpH7-B3/GpL16-k0
- B10 — lower, 140 % of GpH7-A5/GpH7-B3/GpL16-k0
- B11 — lower, 140 % of GpH7-A5/GpH7-B3/GpL16-k0
